Measurements taken from the nanobody polyreactivity screen of Harvey et al. (2022).

assay: yeast display, Sf9 membrane polyspecificity reagent, FACS + sequencing; frameworks hold sequencing errors
Method in brief: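 A nanobody's polyreactivity label depends on the gate it was sorted from. Yeast display cells were stained with 10% biotinylated, detergent-solubilized Sf9 membrane reagent for 1 hour at 4 °C, enriched on streptavidin microbeads and sorted by FACS. The low and high (top ~1%) gates were set on anti-HA fluorescence for expression and streptavidin fluorescence for reagent binding.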

Row | Sequence | polyreactivity (PSR sort gate)
1 | QVQLVESGGGLVQAGGSLRLSCAASGITFYEYTMGWYRQAPGKETELVAVIRKTGGSTYYADSVKGRFTISRDNAKNTVYLQMNSLKPEDTAVYYCNARYGGSGRVPRSYDYWGQGTQVTVSS | high polyreactivity
2 | QVQLVESGGGLVQAGGSLRLSCAASGITFYFYAMGCERQAPGKERELVAAINRSGSSTYYADSVKGRFTISRDNAKTSVYLQMNSLNPEDTAVYYFAAGWYPWAYEDWGQGTQVTVTS | high polyreactivity
3 | QVQLVESGGGLVQAGGSLRLSCAASGITFYGNAMGWYRQAPGKERELVAAITASGGRTYYADSVKGRFTISRDNAKNTVYLQMNSLKPEDTAVYYCAAKKATVVYRMEYWGQGTQVTVSS | high polyreactivity
4 | QVQLVESGGGLVQAGGSLRLSCAASGITFYGNAMGWYRQAPGKERELVANTYYADSVKGRFTISRDNAKNTVYLQMNSLKPEDTAVYYCNVLFADKSDYWGQGTQVTVSS | low polyreactivity
5 | QVQLVESGGGLVQAGGSLRLSCAASGITFYGYAMGWYRQAPGKERELVAAITSGGSTYYADSVKGRFTISRDNAKNTVYLQMNSLKPEDTAVYYCARYYWIRVGRYYRYEYWGQGTQVTVSS | low polyreactivity
6 | QVQLVESGGGLVQAGGSLRLSCAASGITFYGYAMGWYRQAPGKERELVARISRGGRTYYADSVKGRFTISRDNAKNTVYLQMNSLKPEDTAVYYCAAGKYWYAGKYLYDYWGQGTQVTVSS | high polyreactivity
7 | QVQLVESGGGLVQAGGSLRLSCAASGITFYGYAMGWYRQEPGKERELVATISSGGGTNYADSVKGRFTISRDNAKNTVYLQMNSLKPEDTAVYYCATDLSTVDYNYWGQGTQVTVSS | low polyreactivity
8 | QVQLVESGGGLVQAGGSLRLSCAASGITFYGYVMGWYRQAPGKERELVAAISTSGGSTYYADSVKGRFTISRDNAKNTVYLQMNSLKPEDTAVYYCAKYLYPFYPDYDYWGQGTQVTVSS | high polyreactivity
9 | QVQLVESGGGLVQAGGSLRLSCAASGITFYHYAMGWYRQAPGKERELVAAISVSGGRTYYADSVKGRFTISRDNAKITVYLQMNSLKPEDTAVYYCAKVSQVRGFYYWGQGTQVTVSS | high polyreactivity
10 | QVQLVESGGGLVQAGGSLRLSCAASGITFYIYAMGWSRQAPGKEREFVASITWRGGSTYYADSVKGRFTISRDNAKNTVYLQMNSLKPEDTAVYYCNAEYSSSRYWYYDYWGQGTQVTVSS | high polyreactivity
11 | QVQLVESGGGLVQAGGSLRLSCAASGITFYIYAMGWYRQAPGKEREFVASITWRGGSTYYADSVKGRFTISRDNAKNTVYLQMNSLKPEDTAVYYCNAEYSSSRYWYYDYWGQGTQVTVSS | high polyreactivity
12 | QVQLVESGGGLVQAGGSLRLSCAASGITFYIYAMGWYRQAPGKERELVAAISDDGSTHYADSVKGRFTISRDNAKNTVYLHMNSLKPEDTAVYYCNADYYWFFDFFDYDYWGQGTQVTVSS | low polyreactivity
13 | QVQLVESGGGLVQAGGSLRLSCAASGITFYLYAMGWYRQAPGKERELVAAISGRGGITYYADSVKGRFTISRDNAKNTVYLQMNSLKPEDTAVYYCAAGKLIWGQGTQVTVSS | high polyreactivity
14 | QVQLVESGGGLVQAGGSLRLSCAASGITFYPYAMGWYRQAPGKERELVAAISFSGGSTYYADSVKGRFTISRDNAKNTVYLQMNSLKPEDTAVYYCAADRRSGDDYWGQGTQVTVSS | high polyreactivity
15 | QVQLVESGGGLVQAGGSLRLSCAASGITFYPYAMGWYRQAPGTERELVAAITGSGGRTYYADSVKGRFTISRDNAKNTVYLQMNSLKPEDTAVYYCAKVARYPDMGYWGQGTQVTVSS | high polyreactivity
16 | QVQLVESGGGLVQAGGSLRLSCAASGITFYTYVMGWYRQAHGKERELVAAITNADSTYYADSVKGRFTISRDNAKNTVYLQMNSLKPEDTAVYYCAADWYWGGIVDSWGQGTQVTVSS | high polyreactivity
17 | QVQLVESGGGLVQAGGSLRLSCAASGITFYVNAMGWYRQAPGKERELVAAINSGSTNYADSVKGRFTISRDNAKNTVYLQMNSLKPEDTAVYYCAVDVYWEFSPEYDYWGQGTQVTVSS | low polyreactivity
18 | QVQLVESGGGLVQAGGSLRLSCAASGITFYVNAMGWYRQAPGKERELVAAITQSVDITSYADSVKGRFTISRDNAMNTFYLQINRLKPEYTAVYYCATRGIPDDNARDYWGQGTQVTVSS | low polyreactivity
19 | QVQLVESGGGLVQAGGSLRLSCAASGITFYVYAMGWYRQAPGKERELVAAISGSGGNTYYADSVKGRFTISRDNAKNTVYVQMNSLKPEDTAVYYCNADDHSPYYCDLDYWGQGTQVTVSS | low polyreactivity
20 | QVQLVESGGGLVQAGGSLRLSCAASGITFYYYAMGWYRPAPGKERELVADITGTGSRTYYADSVKGRFTISRDNAKNTVYLQMNSLKPEDTAVYYCAATKRFPWFVYGEGDSWGQGTQVTVSS | high polyreactivity
21 | QVQLVESGGGLVQAGGSLRLSCAASGITFYYYAMGWYRQAPGKERELVAAISTRDGNTYYADSVKGRFTISRDNAKNTVYLQMNSLKPEDTAVYYCAADYFRYYPYDYWGQGTQVTVSS | low polyreactivity
22 | QVQLVESGGGLVQAGGSLRLSCAASGITFYYYAMGWYRQAPGKERELVASISSVGSTYYADSVKGRFTISRDNAKNTVYLQMNSLKPEDTAVYYCAAVDYVRYYPDEFDYWGQGTQVTVSS | low polyreactivity

Row | Sequence | polyreactivity (PSR sort gate)
23 | QVQLVESGGGLVQAGGSLRLSCAASGITFYYYTMGGYRQAPGKERELVAGITRGGRTYYADSVKGRFTISRDNAKNTVYLQMNSLKPEDTAVYYCNADPWWRFDYWGQGTQVTVSS | low polyreactivity
24 | QVQLVESGGGLVQAGGSLRLSCAASGITFYYYTMGWYRQAPGKERELVAAITSRGGNTYYADSVKGRFTISRDYAKNTVYLQMNSLKPEDTAVYFCAASRFSSRGYGYWGQGTQVTVCS | high polyreactivity
25 | QVQLVESGGGLVQAGGSLRLSCAASGITFYYYVMGWYRQAPGKERELVASISRGGSTYYADSVKGRFTISRDNAKNTVYLQMNSLKPEDTAVYYCAAAGNRPWSITPFRKRYGYNYWGQGSQVTVSS | high polyreactivity
26 | QVQLVESGGGLVQAGGSLRLSCAASGITIKRYPMGWYRQAPGKEREFVATSSQSGTSTYYADSVKGRFTISRDNAKYTVYLQLNSLKPEDTAVYYCAADYIGYWYGYYSWGQGTQVTVSS | low polyreactivity
27 | QVQLVESGGGLVQAGGSLRLSCAASGITIRYYTMGWYRQAPGKERELVASISWSGTSTHYADSVKGRFTISRDNAKNTVYLQMNSLKPEDTAVYYCAATITSLAGGYRNGYTSYYWGQGTQVTVSS | high polyreactivity
28 | QVQLVESGGGLVQAGGSLRLSCAASGITIRYYTMGWYRQAPGKESELVASISWSGTSTHYADSVKGRFTISRDNAKNTVYLQMNSLKPEDTAVYYCAATITSLAGVYRNGYTSYYWGQGTQVTVSS | high polyreactivity
29 | QVQLVESGGGLVQAGGSLRLSCAASGITISYYAMGWYRQAPGKERELVAAISFSGARTYYADSVKGRFTISRDNAKNTVYLQMNSLKPEDTAVYYCNAVSGIVQRYDYWGQGTQVTVSS | high polyreactivity
30 | QVQLVESGGGLVQAGGSLRLSCAASGITIVRYAMGWYRQAPGKERELVAAINRSGGSTYYADSVKGRFTISRDNAKNTVYLQMNSLKPEDTAVYYCAARLYGKYDPPGYYYWGQVTQVTVSS | high polyreactivity
31 | QVQLVESGGGLVQAGGSLRLSCAASGITIWGYTMGWYRQAPGKERELVAAITSTGSTYYADSVKGRFTISRDNAKNHVYFQMNSQKPEDTSVYYCAATRGSSDYYYWGQGTQVTVSS | low polyreactivity
32 | QVQLVESGGGLVQAGGSLRLSCAASGITIYIYAMGWYRQAPGKERELVAAISDVGSTHYADSVKGRFTISRDNAKNTVYLQMNSLKPEDTAVYYCNADYYWFFVFFDYDYWGQGTQVSVSS | low polyreactivity
33 | QVQLVESGGGLVQAGGSLRLSCAASGITLALYAMGWYIQAPGKERELVAAISWTGGSTYYADSVKGRFTISRDNAKNTVYLQMNSLKPEDPAVYYCNAVPGPPHSYLGGDYWGQGTQVTVSS | high polyreactivity
34 | QVQLVESGGGLVQAGGSLRLSCAASGITLARNAMGWYRQAPGKERELVASITWSGGTTYYADSVKGRFTISRDNAKNTVYLQMISLKPEDTAVYYCAASAKLHYYRTYRYNYWGQGTQVSVSS | high polyreactivity
35 | QVQLVESGGGLVQAGGSLRLSCAASGITLFYSAMGWYRQAPGKERELVAAISWSGGSTYYADSVKGRFTISRDNAKNTVYLQMNSLKPEDTAVYYCAAGYIRFYRSREYWGQGTQVTVSS | high polyreactivity
36 | QVQLVESGGGLVQAGGSLRLSCAASGITLFYYAMGWYRQAPGKERELVAVISASGGSTYYADSVKGRFTISRDNAKNTVYLQMNSLKPEDTAVYYCAAVAYWRSSSWYYYWGQGTQVTVSS | high polyreactivity
37 | QVQLVESGGGLVQAGGSLRLSCAASGITLGAYAMGWYRQAPGKERELVAAISRSGGSTYYADSVKGRFTISRDNAKNTVYLQMNSLKPEDTAVYYCNAPRFVSYDYWGQGTQVTVSS | high polyreactivity
38 | QVQLVESGGGLVQAGGSLRLSCAASGITLGRYAMGWYRQAPGKERELVAAISWSGGTTYYADSVKGRFTISRDTAKNTVDLQMNSLKPEDTAGYYCTKESPYRQWGWSYYYWGQGTQVTVSS | high polyreactivity
39 | QVQLVESGGGLVQAGGSLRLSCAASGITLGRYSMGLYRQAPGKVRELVAVISDSGGSTYYADSVKGRFTISRDNAKNTVYLQMNSLKPEYTAVYYCARRFDRYPRYYYWGQGTQVTVSS | high polyreactivity
40 | QVQLVESGGGLVQAGGSLRLSCAASGITLRRNTMGWDRQAPGKERELVAAITRSGGSTYYADSVKGRFTISRDNAKNTVYLQMNSLKPEDTAVYYCAKGPSYGGPSHDYWGQGTQVTVSS | high polyreactivity
41 | QVQLVESGGGLVQAGGSLRLSCAASGITLTKNAMGWYRQAPGKERELVAGITRGSRTNYADSVKGRFTISRDNAKNSVYLQMNSLIPEDTAVYYCAASYWPYRGPVGGSKMYFWGQGTQVTVSS | high polyreactivity
42 | QVQLVESGGGLVQAGGSLRLSCAASGITLYRYVMGWYRQAPGKERELLADISGRGTSTYYADSVKGRFTISRDNAKNTVYLQMNSLNAEDTAVYYCNAEFTKSGALVIPYTYYYAEDYWGQGSQVTVSS | low polyreactivity
43 | QVQLVESGGGLVQAGGSLRLSCAASGITLYYYAMGWYRQAPGKEREFVAAITWRGTNTYYADSVKGRFTISRDNAKNTVYLQMNSLKPEDTAVYYCAADYEQRVADYYYWGQGTQVTVSS | low polyreactivity
